From publication PMC7806768

Biological target: R.CcoLI(D225N) mutant (Campylobacter coli)
Test: SEC; Superdex 200 HR 10/30; samples 2.3 uM; 10 mM MES pH 6.0, 200 mM NaCl, 1 mM TCEP; size estimated against marker proteins (aldolase, conalbumin, chymotrypsinogen A, ribonuclease A)

Substance: R.CcoLI(D225N) mutant (enzyme)
- stoichiometry N: 2
